Measurements taken from doi:10.1101/869594 (bioRxiv, 2019).
“And” between values parts separate entries of the source, which are not always exact repeats. Equal values may be shown once.

Target: the molecule itself
Assay: crystal structure

B1: N-terminal membrane anchoring domain of mycobacterial Wag31 (domain or fragment)
chain: PLTPADVHNVAFSKPPIGKRGYNEDEVDAFLDLVENELTRLIEENSDLRQRINELDQEL
For B1, the “stoichiometry N” value was 2 and 4.
